From the DeepSol protein solubility set

Test: soluble on expression in E. coli; label from the status in PepcDB or PDB records
In the case of “MAHHHHHHMDEKSEINYDEGADPSYSMHMSESHSAYEEVNKTSSDSEFVDDDYSKVISENNLESDNVKYNPDLYNLGKARQYLCPKVQEYGIPGQVSPYHFPYNEEDYLSNVDTEYDENGFPIRTNIDDNDNNEDNKKLWSWTNDGKLKLLCSQPIIPVSVVQGILRRDKIILIPQVEVTDVVIPKVYNQNIKHDVPTLNIEIMKSNVNIPNVKYVDKEIIIPIITGYTHKFVPKWDIHEVPRPVVKYIGEQKIVEVEVPEIKYIDKFVEREVIVDTVEKRVPKIIEVPKYVDEVKYVWKPIEKIVYVQKLIPKFDVNLECPPPLIVPYPVQRIKQISPVMVKKNNTEIPDYNYYDLNSPEGSLPIPEEYIHHYSRKQKMNKGLLSTCCDKKIVTEEEKNVQFVSVPLSNEHESVCVDEEIKKNINMSQENINTQLNNNMDNFIYDSDIKKNKDKMNSSINGKQQLYINS”, the “soluble on expression in E. coli” value is reported as “not soluble”.
In the case of “MAHHHHHHMDGGGRVAGTGVQLKPATVHGSVECVEFDKLSGSSNLFALQTMPVYFGASRVPWRLLDVGVKERKPASESGSAGAAMWLALVRFPPRGACPMPAAMGGWGVR”, the “soluble on expression in E. coli” value is reported as “not soluble”.
With “MAHHHHHHMDKISPEILAARAKLKEKMGGNLRQIGGKGSARRKIKKVHKNSMSNEKKINLILKKIGASYFGDVDEICVYKAGDTYMEFKRPKLSASLQSNTYVVTGKFTEQKIDINKIFEGLKGNKNVDMNLLEKIKNDPNIKNLLNKENNGNAKKEEGAQEAADVPDLVENFEEVSKEEQK” the “soluble on expression in E. coli” value was “soluble”.
For “MAHHHHHHMDSEETINLAVKYAKEAVVEDEKKNYKEALNLYIQSLQYFNFFCKYEKNSNIRDLILKKMEVYMTRAENLKEMLNKKDSIENKEKITNTEETKENMKKQIKQFILNKNNNIKWSDVCGLETAKEVLKEAIIFPLKFPKLFNSSTLPYKGILLYGPPGTGKTFLALACSNECNMNFFNVSSSDLVSKYQGESEKYIKCLFETAKEHSPAIIFIDEIDSLCGSRTDGENESTRRIKTEFLINMSGLTNYKNNIIVMGATNTPWSLDSGFRRRFEKRIYIPLPNIYARAKIFEKYINQNENNNISKEDIKQFATLTENYTGADIDILCRDAVYMPVKKCLLSKFFKQVKKNNKICYTPCSPGDSDPTKVEKNVMSLSENELSLPPLTVQDFKTAISNAKPSLSVDDIKKYEEWTHQYGMNGT”, the “soluble on expression in E. coli” value was “not soluble”.
In the case of “MAHHHHHHMDVSQFLKSFKKNVAAKSKRSSSVRQSDEAANSGAEEDVTEIFHSASDSEADGEAEDGEVILGGRADKMAGKRYTRNMDHSKRNREFAALKVVETNSVPAVEAGRFQRQRAALARQATDARKPPRTEMIASVRAELLRQREKLRGSNALDSANQLDASVQKMETTMIEVEDLLQASAPTAATSASVLDFLPAAPLPAPRQATLTTASRAASIAVALSEPQPPSSSVTNGRAGTPTVNDPALEEPPKLPKKRTKFELAMAMAHDEVAS”, the “soluble on expression in E. coli” value is reported as “not soluble”.
For “MAHHHHHHMEAFAITPLAEDDTTFVKDAQQFLAVIADMQREAEQRRCLLDDLRQKEAAAEMELEKCLAVREAVVARMAHTKAEGLELQSEYKALTTQQRAVEAEVLELRRQKSHWKKVLQEFQGSSSSSHLLGSGNTDGATVKSASSLDRALHAWSQLPHGSMFLKELKKTLTEFVAELAVNAGSNTNDNSNTTHNGTSTEYTTAFLDPSSVFPHLPPLSKVEEAIILLIPFSA”, the “soluble on expression in E. coli” value was “not soluble”.
With “MAHHHHHHMEALETLRSIAPVSSTEEIQAMIKSAKNAREVRMVLERIVYTHHLCFDLLNGHGYRVAVLQTLTAVAPHASCMHEWFDCVARFRRLGFVLTRTYAAEGFTTIRQWLSHEFFHRGRSPSLVTEGTAHIKELMQWCLEDRLVFDHVLYTRIVFLLTMIVSYLDRQNLYRASFPEDFAKRDGIVVEWIVTNERCVDFDECVLQCDAVMEELLEQMRQDIPSRPPFSFMYRLADYYFATDNVEKMIAVMEDAESYGVSVAESTTAKLMQMACAFNSPQVPELLLRWRVLPPQCVLATPDMSRLLFFYSRSGGGLPCPHCGEAYNHRNVSVYCWLQTPPHQRQCPALRKARVQKGELEESRELPQNADWSAQAFGLFELSRARAIEWTAVEWRGFLLCCIFSPRAMEAKALMDQYLDVTEMDDFLRAACIRLLRHHAPAEAWPTLKKWKQQQCNMSPIALQEALMAASMVADAATRLEHMKAVWQLLLEKDSYVMPLTRRFYQRRMEELATSYAAAAASGDGKESQGGLATEREEAQLMQRVVEMQPRHVSLLDMKDSAADFVVGTRRKNVYRPR” the “soluble on expression in E. coli” value was “not soluble”.
With “MAHHHHHHMECYDNTKQKDLQEEHDVVRNFRRYYFQEKEEMHIAAIKSISDVLKNSISETNFELFINMNEAKCKLNNFINNNQTQQDIISVPHSKRMTIYPIISSCDIYHHFVVKKYTHNENNFHVLKNVIENNADEFSASLQKSLETIGSSSNIMFLNKHTTILTHSNSDCVKSLIMDVVKNQNKQVSIYFTCTSQVNLNYEEKEKKFDENFLEELNKENINITKIDLTQVKDIINKIDFVLIGSEIVTDNGGIINKKGIKLISELCLLYKKPFYVTCQAYKFLKIDKNKCSKDFYTFCTQTVTNNFNNIYEFVSPDFITLFYTDIGIFPPSNISYELSKLYINDAFYF” the “soluble on expression in E. coli” value was “soluble”.
With “MAHHHHHHMEDFLTKLKKISEQYNNLLLEKKIIDKRIANIGENIRKYEETREKSLEDVELKKNQLLKNKNKHIIMCQKMEQLNGKLNEILIRKQSIDDDEEKKVINKQIHTVNNTYVLLKHVQNLNDAMLKDEGNRYYKLITENIHSKSFSNRKTLNILNSFLRKSRANIQERGSEGAKSSTPPAAIHSANYFKIIQTNDIVQKLLDLFSGDHTALTIDKQQFLFVLLMNVLRKIACASEMAIPPEDCNSRHHVIYNFLHNKYILHL” the “soluble on expression in E. coli” value was “soluble”.
For “MAHHHHHHMEESDEDDNIQVIVFGNSSEAKFDDFYREEDIKKEEIQDNINDAMVPNESNEQDKAQNEDVDLESKVQNATKENKVFMKYDYTHEKPWSNHGDKSMWFNYNFDEHTFKEWVQKHIDRKLEKQQNYQIENTDNYFFEDTFKGNMMNTSSVNNQSMQGIKSFPSKNMNPFNTSKLIEHNGSPNYTSNKMDKIKNNNNNNNNKNNSNSNNKNNSNNKNNSNSNNRSDINQTTTNTNNDLKQFQNLINFLKQNN”, the “soluble on expression in E. coli” value was “not soluble”.
With “MAHHHHHHMEGASHEAAEHTSASAMTRKERKKIEKSEKQAEELRQLSKKANAVNGDTDNPFSVTLETDQIAEGSRNITFNKVSVSVNGKTLFKDTTVKLSAGSRYGLMGPNGRGKSTILRLLASRELPVQSNLDLLLVEQEQEFTASELSAVDAVLQSHKKQNACADEAKALGAKAELSEAEMERLHFLEEELDIMGAAQADARARRILFGLGFPTEWHERPTSSFSGGWRKRIALASAVFIEPDVLMLDEPTNHLDLNAVIWLESYLTKAYSEMARRPKTLIVVSHDAGFLDEVCTHMVHVENYMLNYYRGSYSSFDEQLQQRHQELDKKYESVAKTIRDKKRNGMSNAQVEVWIKDQVNSGRLDPLFLEKRRDYTVNFPFPDPPELRDGCVCKLDSVSFNYPGGPVLFQNVSCALWTDSRITLCGPNGIGKSTLLNLMTGVLEPTAGYITLNRQVRIGRYNQHFVDKLPLEKTPVECIQALGIPEEDKARRLLGSFGLEGIVHKNQIATLSGGQKARVAFAAISAESPHFLLFDEPTNHLDVESIDALCTAIRNFKGGVLVVTHDARLIESTEMQIWVAGDKNVMPFNGSLDDYKNVVRAEFEKEEAMRLEERKQLLEHKTEARQLKQSGVADVTTALQEKKEKKQHEHAQGLDAFLTAAAKKKKPKKAKEES” the “soluble on expression in E. coli” value was “soluble”.
For “MAHHHHHHMEGQSELVERVVRMQLTSPDFAEYCVAHVTDPKHRFLFSRNEDEAERRLYVRLLEGRGHQKRAETPAVVAPAFAPERTSSLMTHGGTAVLWMSLLDYFSSTPGVRGPHMPHMFRTEADLTAFVDMLDGAQREHVSLEDVVQFMLRRLPMTEVFLYVLCYMCDVRIHEVRRETRRRSSGACVTDSADGASDEKKLQAAGTLLFIANMLLLQHDALERPLRYLSVFEFYMQRMVEALAGTVPKNSPVDTFLRETVMVWSEGHVFGEEALDCMKRAIGCSLG”, the “soluble on expression in E. coli” value was “not soluble”.
For “MAHHHHHHMEKDDHYKTSEKYEICTSFENIGIDEGLLRGIYAYGFEKPSAIQQRGIKPILNGRDVILQSQSGTGKTCVFAVGALNCVNRNLNETQVIILSPTRELAEQTQKVCLALADYIHVTIYCCIGGKKMSDDIKALNNGVHVISGTPGRIYHMLNLRHLKCKYIKQLVIDEADEMLNKGFKEQVYDIYRFLSPNTQIILSSATLPQEVLEITNKFMHKPVKILVKRDELTLEGIKQFFVSIEKEQWKYETLADLYESLTITQAVVFCNTQMKVDWLTKKMLESNFTVCKMHAGMSQSERDDIMLKFRQCKFRVLISTDIWGRGLDVQEVSLVVNYDLPNSRESYIHRIGRSGRFGRKGVAINFVKNDDIKILRDIEQYYSTQIDEMPMNITELL”, the “soluble on expression in E. coli” value was “not soluble”.
